Results published in paper PMC12084297, “Cytoplasmic connexin43-microtubule interactions promote glioblastoma stem-like cell maintenance and tumorigenicity” (Cell Death & Disease, 2025).
Ends that are not written are not given here. * marks the point of attachment. Biotin = O=C1N[C@H]2[C@H](CS[C@H]2CCCCC(=O)*)N1

Key:
β-tubulin = β-tubulin (human (endogenous in VTC-001 and …, UniProt P07437 1-444)); experiment: cellular thermal shift assay (CETSA); fresh VTC-037 GSC lysates in non-denaturing buffer treated 1 h with 3-fold dilutions (222.2, 74.0, 24.7, 8.2 and 2.7 nM) of peptide, heat challenge at 57 °C for 20 min, centrifugation, immunoblot of the stable protein normalised to DMSO control; EC50 of target engagement; settings: one partner purified
α-tubulin = α-tubulin (human (endogenous in VTC-037 GSCs), UniProt P68363 1-451); experiment: as above; settings: one partner purified
Chain of α-tubulin (P68363 whole entry): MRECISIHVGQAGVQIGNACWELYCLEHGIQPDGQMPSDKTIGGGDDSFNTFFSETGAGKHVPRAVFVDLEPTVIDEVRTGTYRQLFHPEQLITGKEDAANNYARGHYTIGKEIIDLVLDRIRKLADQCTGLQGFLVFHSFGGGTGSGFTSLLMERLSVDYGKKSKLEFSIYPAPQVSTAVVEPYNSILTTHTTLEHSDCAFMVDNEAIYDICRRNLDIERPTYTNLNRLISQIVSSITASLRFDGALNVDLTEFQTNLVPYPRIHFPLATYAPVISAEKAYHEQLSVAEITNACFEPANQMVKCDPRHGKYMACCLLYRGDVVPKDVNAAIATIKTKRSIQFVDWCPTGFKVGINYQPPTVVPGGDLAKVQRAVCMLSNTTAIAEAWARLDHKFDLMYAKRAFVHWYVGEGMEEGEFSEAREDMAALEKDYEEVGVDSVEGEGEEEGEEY

Chain of β-tubulin (human (P07437 whole entry): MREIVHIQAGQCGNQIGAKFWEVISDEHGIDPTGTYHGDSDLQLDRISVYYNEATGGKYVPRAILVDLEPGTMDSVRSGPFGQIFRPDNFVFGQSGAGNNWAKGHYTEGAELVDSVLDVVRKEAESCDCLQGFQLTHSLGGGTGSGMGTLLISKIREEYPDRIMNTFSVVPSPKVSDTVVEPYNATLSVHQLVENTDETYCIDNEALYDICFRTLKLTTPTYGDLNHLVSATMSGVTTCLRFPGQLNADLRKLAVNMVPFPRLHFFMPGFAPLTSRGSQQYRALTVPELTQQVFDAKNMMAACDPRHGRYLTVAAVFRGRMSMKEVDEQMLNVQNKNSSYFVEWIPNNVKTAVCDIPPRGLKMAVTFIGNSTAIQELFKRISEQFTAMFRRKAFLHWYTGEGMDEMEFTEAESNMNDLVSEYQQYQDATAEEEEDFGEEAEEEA

## Biotin-RQPKIWFPNRRKPWKKGSDVFKRKFVDRKVG [JM2-scrambled peptide]
β-tubulin
  EC50: > 200 nM
α-tubulin
  EC50: > 200 nM
